Assay results reported in article PMC5566955.

Key:
[1] = target: MacQ heterodimer consisting of an α-chain and a β-chain (wild-type, cleaved form) (Acidovorax sp. strain MR-S7); test: SEC; analytical gel filtration, Superose 6 10/300 GL, 50 mM sodium phosphate pH 8.0, 200 mM NaCl, 0.4 mL/min
[2] = target: MacQ heterodimer consisting of an α-chain and a β-chain (wild-type, cleaved form) (Acidovorax sp. strain MR-S7); test: crystal structure; wild-type MacQ, ligand-free and with the reaction products C10 and PAA; crystals at 20 °C from 100 mM Tris-HCl pH 7.5–8.5, 0.1–0.2 M calcium acetate, 14–18% PEG 3350

stoichiometry N [1]: 2 | stoichiometry N [2]: 2
Substance: MacQ heterodimer consisting of an α-chain and a β-chain (wild-type, cleaved form) (complex)
